Data as given in patent US20230044467A1.

How the values were obtained:
[1] = target: Nα,Nε-diacetyl-L-Lys-D-Ala-D-Ala tripeptide; assay: ITC, 25 C, one-site model
[2] = target: Nα,Nε-diacetyl-L-Lys-D-Ala-D-Ala tripeptide; assay: ITC, tripeptide injected into 10 uM glycopeptide, 25 C, one-site model

Row | Substance | TΔS [1] [kcal/mol] | ΔG [1] [kcal/mol] | ΔH [1] [kcal/mol] | Kd [2] [nM]
1 | keratinimicin A (peptide) | 0.85 | -7.9 | -7 | 1700
2 | keratinimicin C (peptide) | 0.2 | -7.6 | -7.4 | 2800
3 | vancomycin (peptide) | -0.96 | -7.6 | -8.6 | 2700
